Consider six molecules from patent US7332279B2 (Glycozym APS, priority 1999, dated 2008).

Experiment [1] concerns human colonic β3Gal-transferase activity. Particulars: acceptor substrate; read-out: apparent Km, human colonic β3Gal-T activity; cited from earlier work.
The target in experiment [2] is T1, β3Gal-T5 (Homo sapiens, UniProt Q9Y2C3, M85T).
T1 construct: designed to exclude the hydrophobic transmembrane segment and to encode amino acid residues 25-310; secretion signal of vector pAcGP67B (gp67); made in house; host or cells: baculovirus; Sf9 cells (media) and High Five cells (serum-free medium, partially purified)
T1 sequence (Q9Y2C3 25-310 M85T): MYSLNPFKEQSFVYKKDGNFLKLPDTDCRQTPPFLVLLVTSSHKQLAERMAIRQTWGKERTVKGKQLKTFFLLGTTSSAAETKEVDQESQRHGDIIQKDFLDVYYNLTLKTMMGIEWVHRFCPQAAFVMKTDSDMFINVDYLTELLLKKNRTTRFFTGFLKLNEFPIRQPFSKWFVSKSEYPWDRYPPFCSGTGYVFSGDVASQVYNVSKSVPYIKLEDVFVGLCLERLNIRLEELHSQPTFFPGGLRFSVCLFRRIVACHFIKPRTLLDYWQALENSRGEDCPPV
Put plainly: Galactosyltransferase assay with glycoprotein acceptors, β3Gal-T5. In kind it is biochemical. Particulars: for β3Gal-T5 activity with glycoprotein acceptor: 0.5 mg glycoprotein, 150 μM UDP-Gal. On the procedure:
(§1) The kinetic properties were determined with partially purified, secreted forms of the enzymes. Semipurification of enzymes from serum-free medium of infected High-Five™ cells was performed by sequential Amberlite, DEAE-Sephacel and 5-Sepharose chromatography as described previously (Wandall, H. H., Hassan, H., Mirgorodskaya, E., et al. Substrate specificities of three. members of the human UDP-N-acetyl-alpha-D-galactosamine:Polypeptide Nacetylgalactosaminyltransferase family, GalNAc-T1, -T2, and -T3. J. Biol. Chem. 272:23503-23514, 1997). Comparisons of enzymes were performed relatively to the activity obtained with βGlcNAc-Bz1 (Tables II and III). Full length enzymes were assayed with 1% Triton CF54 homogenates of washed cells. Enzyme assays were performed in 50 μl total reaction mixtures containing 25 mM Cacodylate (pH 7.5), 10 mM MnCl2, 0.25% Triton X-100, 100 μM UDP-[^14C]-Gal (2,600 cpm/nmol) (Amersham), and varying concentrations of acceptor substrates (Sigma) (see Table I for structures). Reaction products were quantified by Dowex-1 chromatography. […] The transfer of Gal was evaluated after acid precipitation by filtration through Whatman GF/C glass fibre filters. […] Assays with glycolipid acceptors were conducted as previously described (Holmes, E. H. Characterization and membrane organization of beta 1-3- and beta 1-4-galactosyltransferases from human colonic adenocarcinoma cell lines Cob 205 and SW403: basis for preferential synthesis of type 1 chain lacto-series carbohydrate structures. Arch Biochem Biophys 270:630-646, 1989) in reaction mixtures containing 2.5 μmol HEPES buffer, pH 7.2, μmol MnCl2, 100 μg taurodeoxycholate or Triton CF-54, 20 μg acceptor glycolipid, 15 nmol UDP-[^14C]-galactose (13,000 cpm/nmol) and enzyme in a total volume of 100 μl. Conditions for incubation and product isolation were as previously described (Id.).

In experiment [3] the target is T2, β3Gal-T2 (Homo sapiens, UniProt O43825).
T2 construct: The kinetic properties were determined with partially purified, secreted forms of the enzymes; made in house; host or cells: baculovirus; Sf9 / High Five insect cells, medium
T2 sequence (O43825 46-422 limits assumed): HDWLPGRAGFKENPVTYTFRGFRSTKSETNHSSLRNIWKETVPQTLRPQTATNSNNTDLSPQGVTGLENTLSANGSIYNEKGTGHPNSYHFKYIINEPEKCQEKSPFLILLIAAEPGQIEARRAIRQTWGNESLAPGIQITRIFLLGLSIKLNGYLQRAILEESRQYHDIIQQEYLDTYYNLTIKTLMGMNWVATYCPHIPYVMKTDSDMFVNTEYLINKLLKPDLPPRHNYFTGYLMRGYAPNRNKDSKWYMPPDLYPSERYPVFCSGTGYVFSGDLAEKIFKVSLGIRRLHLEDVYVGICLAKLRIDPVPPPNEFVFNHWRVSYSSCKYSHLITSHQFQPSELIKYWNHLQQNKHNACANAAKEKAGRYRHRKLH
Briefly: Galactosyltransferase assay with glycoprotein acceptors, β3Gal-T2. To be noted: for β3Gal-T2 activity with glycoprotein acceptor: 0.5 mg glycoprotein, 150 μM UDP-Gal. In kind it is biochemical. On the procedure:
as §1

Experiment [4] has as its target T3, β3Gal-T1 (Homo sapiens, UniProt Q9Y5Z6).
T3 construct: The kinetic properties were determined with partially purified, secreted forms of the enzymes; made in house; host or cells: baculovirus; Sf9 / High Five insect cells, medium
T3 sequence (Q9Y5Z6 27-326 limits assumed): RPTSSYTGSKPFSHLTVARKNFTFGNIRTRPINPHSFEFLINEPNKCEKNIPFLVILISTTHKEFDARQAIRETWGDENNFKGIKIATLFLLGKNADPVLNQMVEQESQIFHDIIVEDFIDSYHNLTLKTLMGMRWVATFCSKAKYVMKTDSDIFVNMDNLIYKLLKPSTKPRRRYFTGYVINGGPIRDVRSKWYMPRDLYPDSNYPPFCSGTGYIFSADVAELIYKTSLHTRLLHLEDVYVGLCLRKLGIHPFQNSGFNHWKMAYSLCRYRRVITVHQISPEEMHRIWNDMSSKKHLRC
Put plainly: Galactosyltransferase assay with glycoprotein acceptors, β3Gal-T1. Particulars: for β3Gal-T1 activity with glycoprotein acceptor: 0.5 mg glycoprotein, 150 μM UDP-Gal. In kind it is biochemical. On the procedure:
as §1

The subject of experiment [5] is β3Gal-T activity from Colo205 cells. Particulars: acceptor substrate; cited from earlier work.
For experiment [6], the target named is T1, β3Gal-T5. Briefly: Galactosyltransferase assay with glycolipid acceptors, β3Gal-T5. In kind it is biochemical. How it is done: as §1

Broadly, the Km is the substrate concentration at which the rate is half of its maximum.

Turning to `CC(=O)N[C@H]1[C@H](O[C@H]2[C@@H](O)[C@@H](CO)O[C@@H](O[C@H]3[C@H](O)[C@@H](O)C(O)O[C@@H]3CO)[C@@H]2O)O[C@H](CO)[C@@H](O)[C@@H]1O` (stereo partly drawn) [β-D-GlcNAc(1-3)-D-β-Gal(1-4)-D-β-Glc], the Km in experiment [1] is 2900 µM.

Regarding “Orosomucoid: glycoprotein acceptor substrate”, in experiment [2], the “β3Gal-T5 ratio glycoprotein / β-D-GlcNAc-Bzl” value is “(0.0)” and the “β3Gal-T5 activity with glycoprotein acceptor” value was found to be 0.0 mmol/min. For the same molecule, in experiment [3], the “β3Gal-T2 ratio glycoprotein / β-D-GlcNAc-Bzl” value was “(0.0)” and the “β3Gal-T2 activity with glycoprotein acceptor” value (from here on “β3Gal-T2 activity”) is recorded as 0.0 mmol/min. Also, in experiment [4], the “β3Gal-T1 ratio glycoprotein / β-D-GlcNAc-Bzl” value is listed as “(0.0)” and the “β3Gal-T1 activity with glycoprotein acceptor” value (“β3Gal-T1 activity” below) is 0.0 mmol/min.

For “Asialo-agalacto-fetuin: glycoprotein acceptor substrate”, in experiment [2], the “β3Gal-T5 ratio glycoprotein / β-D-GlcNAc-Bzl” value was “(0.0)” and the “β3Gal-T5 activity with glycoprotein acceptor” value is 0.0 mmol/min. In experiment [3], the “β3Gal-T2 ratio glycoprotein / β-D-GlcNAc-Bzl” value is reported as “(1.8)” and the “β3Gal-T2 activity” value is reported as 0.07 mmol/min. In experiment [4], the “β3Gal-T1 ratio glycoprotein / β-D-GlcNAc-Bzl” value is reported as “(0.3)” and the “β3Gal-T1 activity” value turned out to be 0.01 mmol/min.

Turning to Bovine submaxillary mucin, in experiment [2], the “β3Gal-T5 ratio glycoprotein / β-D-GlcNAc-Bzl” value was “(0.4)” and the “β3Gal-T5 activity with glycoprotein acceptor” value came out at 0.04 mmol/min. Also, in experiment [3], the “β3Gal-T2 ratio glycoprotein / β-D-GlcNAc-Bzl” value is on record as “(0.0)” and the “β3Gal-T2 activity” value was determined as 0.0 mmol/min. For the same molecule, in experiment [4], the “β3Gal-T1 ratio glycoprotein / β-D-GlcNAc-Bzl” value is on record as “(0.0)” and the “β3Gal-T1 activity” value is 0.0 mmol/min.

As for GlcNAcβ1-3Galβ1-4Glcβ1-Cer [Lc3], the Michaelis constant (Km) in experiment [5] was 13 µM; in experiment [6] (in the presence taurodeoxycholate, based on data points at low concentrations (substrate inhibition), read-out: apparent Km of β3Gal-T5), approximately 2 µM. In addition, the “β3Gal-T5 activity with glycolipid acceptor, Triton CF-54” value in experiment [6] (100 μg Triton CF-54/100 μl, 20 μg glycolipid) is 3.6 µmol/h/mg. Also, in experiment [6] (100 μg taurodeoxycholate/100 μl, 20 μg glycolipid), the “β3Gal-T5 activity with glycolipid acceptor, TDOC” value is 4.4 µmol/h/mg.

B1: Hen egg albumin: glycoprotein acceptor substrate (protein, UniProt P01012 2-386, looked up)
Ovalbumin: GSIGAASMEFCFDVFKELKVHHANENIFYCPIAIMSALAMVYLGAKDSTRTQINKVVRFDKLPGFGDSIEAQCGTSVNVHSSLRDILNQITKPNDVYSFSLASRLYAEERYPILPEYLQCVKELYRGGLEPINFQTAADQARELINSWVESQTNGIIRNVLQPSSVDSQTAMVLVNAIVFKGLWEKAFKDEDTQAMPFRVTEQESKPVQMMYQIGLFRVASMASEKMKILELPFASGTMSMLVLLPDEVSGLEQLESIINFEKLTEWTSSNVMEERKIKVYLPRMKMEEKYNLTSVLMAMGITDVFSSSANLSGISSAESLKISQAVHAAHAEINEAGREVVGSAEAGVDAASVSEEFRADHPFLFCIKHIATNAVLFFGRCVSP
In the case of B1, in experiment [2], the “β3Gal-T5 ratio glycoprotein / β-D-GlcNAc-Bzl” value was “(0.0)” and the “β3Gal-T5 activity with glycoprotein acceptor” value was 0.0 mmol/min. Moreover, in experiment [3], the “β3Gal-T2 ratio glycoprotein / β-D-GlcNAc-Bzl” value is listed as “(0.5)” and the “β3Gal-T2 activity” value worked out at 0.02 mmol/min. In addition, in experiment [4], the “β3Gal-T1 ratio glycoprotein / β-D-GlcNAc-Bzl” value was “(0.0)” and the “β3Gal-T1 activity” value came to 0.0 mmol/min.
